Reference: paper doi:10.1101/2023.11.17.567546

What was measured:
Hfq [1] = target: Hfq (UniProt P0A6X3); test: lead acetate footprinting
Hfq [2] = target: Hfq (UniProt P0A6X3); test: EMSA

Hfq, sequence (P0A6X3 whole entry): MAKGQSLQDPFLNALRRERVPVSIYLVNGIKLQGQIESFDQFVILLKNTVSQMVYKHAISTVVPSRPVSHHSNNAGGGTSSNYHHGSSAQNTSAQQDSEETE

Sequence: GCGCCAACGUCGCAUCUGGUUCUCAUCAUCGCGUAAUAUUGAUGAAACCUGCGGCAUCCUUCUUCUAUUGUGGAUGCUUUACAAUGAUUAAAAAAGCUUCGCUGCUGACGGCGUGUUCCGUCACGGCAUUUUCCGCUUGGGCACAGGAUACCAGCCCGGAUACUCUCGUCGUUACUGCUAACCGUUUUGAACAGCCGCGCAGCACUGUGCUUGCACCAACCACCGUUGUGACCCGUCAGGAUAU [btuB mRNA -80 to +161]
- binding (Hfq [1]): binds
- binding (Hfq [2]): binds
